Reference: publication PMC9039656

Target: T1, PAP1 R2R3-MYB domain (UniProt Q9FE25 1-178)
T1 sequence: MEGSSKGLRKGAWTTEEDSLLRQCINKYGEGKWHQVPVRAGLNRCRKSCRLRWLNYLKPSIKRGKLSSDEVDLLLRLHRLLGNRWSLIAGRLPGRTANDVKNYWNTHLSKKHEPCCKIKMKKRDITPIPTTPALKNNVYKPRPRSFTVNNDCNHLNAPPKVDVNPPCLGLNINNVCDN
Test: EMSA

B1: NtPMT2 MRE-like probe (dsDNA)
DNA 1: CCAACAACCGCGCCAACAACCGCGCCAACAACCGCG
DNA 2: CGCGGTTGTTGGCGCGGTTGTTGGCGCGGTTGTTGG
B1: no binding.
